The text below walks through data of patent US20150344570A1 (published 2015).

The target of assay [1] is T1, FcγRIIa H (human FcγRIIa, allotype H131, extracellular domain with C-terminal His tag) (human, UniProt P12318 34-217).
T1 construct: extracellular domain; Soluble extracellular domain expressed in FreeStyle293 cells; used as analyte in Biacore; also called FcgRIIa H; FcγRIIa type H; not shown: His tag attached to the C terminus
T1 sequence (looked up): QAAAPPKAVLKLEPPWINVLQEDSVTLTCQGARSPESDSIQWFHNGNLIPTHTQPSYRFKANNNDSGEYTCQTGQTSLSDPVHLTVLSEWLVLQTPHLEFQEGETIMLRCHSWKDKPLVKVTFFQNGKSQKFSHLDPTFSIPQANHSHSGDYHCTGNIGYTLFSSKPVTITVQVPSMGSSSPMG
In words: SPR (Biacore T100), antibody captured on antigen-peptide chip, FcγRIIa H as analyte; relative binding. The procedure:
Analysis of interaction between objective antibody and the FcγR was carried out using Biacore T100 (GE Healthcare). HBS-EP+ (GE Healthcare) was used as the running buffer, and the measurement temperature was set to 25° C. Chips produced by immobilizing the antigen peptide by the amine coupling method to a Series S Sencor Chip CM5 (GE Healthcare), or alternatively, chips produced by allowing preliminarily biotinylated antigen peptides to interact with and immobilize onto a Series S Sensor Chip SA (certified) (GE Healthcare) were used. Antibodies of interest were captured onto an antigen peptide-immobilized chip, and allowed to interact to each FcγR diluted with running buffer. To regenerate and repeatedly use the chip, the antibodies captured on the chip were washed off by reacting 10 mM glycine-HCl, pH 1.5.

Assay [2] addresses T2, FcγRIIa H (FcγRIIa, allotype with His at position 131), extracellular domain with C-terminal His tag (human, UniProt P12318 34-217).
T2 construct: extracellular domain; also called FcgRIIa H; 2aH; not shown: His tag at the C terminus
T2 sequence (looked up): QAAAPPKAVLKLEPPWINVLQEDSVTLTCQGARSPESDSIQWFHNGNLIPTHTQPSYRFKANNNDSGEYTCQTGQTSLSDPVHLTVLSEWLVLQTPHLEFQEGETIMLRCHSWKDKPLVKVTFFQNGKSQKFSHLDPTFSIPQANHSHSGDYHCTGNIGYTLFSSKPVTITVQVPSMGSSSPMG
Put plainly: SPR (Biacore); He/Con_2aH divided by He/Con_2b (FcγRIIb).

Assay [3] addresses T3, FcγRIIb, extracellular domain with C-terminal His tag (human, UniProt P31994 43-217).
T3 construct: extracellular domain; also called FcgRIIb; 2b; not shown: His tag at the C terminus
T3 sequence (looked up): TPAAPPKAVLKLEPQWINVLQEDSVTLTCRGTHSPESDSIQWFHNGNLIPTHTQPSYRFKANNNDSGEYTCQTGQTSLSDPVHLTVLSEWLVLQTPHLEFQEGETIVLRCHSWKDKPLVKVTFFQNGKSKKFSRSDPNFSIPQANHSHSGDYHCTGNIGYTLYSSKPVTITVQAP
Put plainly: SPR (Biacore), relative binding vs GpH7-A5/GpH7-B3/GpL16-k0.

For assay [4], the target named is T2, FcγRIIa H (FcγRIIa, allotype with His …). The assay is described as above.

B1: GpH7-B3 variant T335_04F/GpL16-k0 (homodimerized antibody, Ho Ab) (antibody, human IgG1, kappa)
heavy: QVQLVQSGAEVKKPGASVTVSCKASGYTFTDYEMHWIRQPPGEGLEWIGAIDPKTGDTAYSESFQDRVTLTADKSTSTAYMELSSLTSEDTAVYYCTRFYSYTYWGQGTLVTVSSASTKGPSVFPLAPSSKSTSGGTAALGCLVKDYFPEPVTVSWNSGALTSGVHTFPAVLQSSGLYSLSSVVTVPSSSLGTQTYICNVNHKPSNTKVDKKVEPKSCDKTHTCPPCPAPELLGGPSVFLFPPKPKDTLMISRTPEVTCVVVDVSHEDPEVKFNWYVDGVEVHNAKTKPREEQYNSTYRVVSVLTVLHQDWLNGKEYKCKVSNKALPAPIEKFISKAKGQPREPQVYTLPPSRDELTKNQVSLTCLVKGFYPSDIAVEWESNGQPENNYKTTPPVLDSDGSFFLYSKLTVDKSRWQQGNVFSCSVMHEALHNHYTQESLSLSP
light: DIVMTQSPLSLPVTPGEPASISCQASESLVHSNRNTYLHWYLQKPGQSPQLLIYKVSNRFSGVPDRFSGSGSGTDFTLKISRVEAEDVGVYYCSQNTHVPPTFGQGTKVEIERTVAAPSVFIFPPSDEQLKSGTASVVCLLNNFYPREAKVQWKVDNALQSGNSQESVTEQDSKDSTYSLSSTLTLSKADYEKHKVYACEVTHQGLSSPVTKSFNRGEC
notes: Anti-glypican-3 IgG1 (G1d with K439E); the alteration stands in both H chains; EU numbering; also called T335_04F Ho Ab; T335F in both H chains
With B1, the Ho/Con_2aH in assay [1] was 104 relative binding activity (control homodimerized antibody GpH7-B3/GpL16-k0 = 100).

B2: GpH7-B3 variant Y300_07I/GpL16-k0 (homodimerized antibody, Ho Ab) (antibody, human IgG1, kappa)
heavy: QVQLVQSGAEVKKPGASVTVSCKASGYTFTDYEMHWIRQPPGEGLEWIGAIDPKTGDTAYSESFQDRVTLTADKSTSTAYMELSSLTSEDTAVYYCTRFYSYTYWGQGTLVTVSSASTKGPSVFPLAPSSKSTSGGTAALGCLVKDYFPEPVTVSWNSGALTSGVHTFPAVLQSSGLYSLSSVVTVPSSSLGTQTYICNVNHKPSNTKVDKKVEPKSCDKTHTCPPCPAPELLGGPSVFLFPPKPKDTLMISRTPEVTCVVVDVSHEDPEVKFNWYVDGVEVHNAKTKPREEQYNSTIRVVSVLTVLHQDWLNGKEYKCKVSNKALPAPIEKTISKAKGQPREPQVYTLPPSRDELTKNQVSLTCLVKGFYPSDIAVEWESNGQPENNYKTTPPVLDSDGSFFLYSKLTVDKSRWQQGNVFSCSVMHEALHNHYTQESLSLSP
light: DIVMTQSPLSLPVTPGEPASISCQASESLVHSNRNTYLHWYLQKPGQSPQLLIYKVSNRFSGVPDRFSGSGSGTDFTLKISRVEAEDVGVYYCSQNTHVPPTFGQGTKVEIERTVAAPSVFIFPPSDEQLKSGTASVVCLLNNFYPREAKVQWKVDNALQSGNSQESVTEQDSKDSTYSLSSTLTLSKADYEKHKVYACEVTHQGLSSPVTKSFNRGEC
notes: Anti-glypican-3 IgG1 (G1d with K439E); the alteration stands in both H chains; EU numbering; also called Y300_07I Ho Ab; Y300I in both H chains
In the case of B2, the Ho/Con_2aH in assay [1] was 122 relative binding activity (control homodimerized antibody GpH7-B3/GpL16-k0 = 100).

B3: GpH7-A5/GpH7-B3 variant N325_08L/GpL16-k0 (antibody, human IgG1, kappa)
heavy 1: not shown
heavy 2: not shown
light: DIVMTQSPLSLPVTPGEPASISCQASESLVHSNRNTYLHWYLQKPGQSPQLLIYKVSNRFSGVPDRFSGSGSGTDFTLKISRVEAEDVGVYYCSQNTHVPPTFGQGTKVEIERTVAAPSVFIFPPSDEQLKSGTASVVCLLNNFYPREAKVQWKVDNALQSGNSQESVTEQDSKDSTYSLSSTLTLSKADYEKHKVYACEVTHQGLSSPVTKSFNRGEC
notes: Heterodimerized anti-glypican-3 IgG1; mutation in one H chain only; also called He Ab
As to B3, in assay [2], the “He_2aH/2b (IIaH/IIb)” value was determined as 0.26 ratio. Moreover, the He/Con_2b in assay [3] was 197 % of HeCon Ab (=100). In addition, the He/Con_2aH in assay [4] was 52 % of HeCon Ab (=100).

B4: GpH7-B3 variant Y300_08L/GpL16-k0 (homodimerized antibody, Ho Ab) (antibody, human IgG1, kappa)
heavy: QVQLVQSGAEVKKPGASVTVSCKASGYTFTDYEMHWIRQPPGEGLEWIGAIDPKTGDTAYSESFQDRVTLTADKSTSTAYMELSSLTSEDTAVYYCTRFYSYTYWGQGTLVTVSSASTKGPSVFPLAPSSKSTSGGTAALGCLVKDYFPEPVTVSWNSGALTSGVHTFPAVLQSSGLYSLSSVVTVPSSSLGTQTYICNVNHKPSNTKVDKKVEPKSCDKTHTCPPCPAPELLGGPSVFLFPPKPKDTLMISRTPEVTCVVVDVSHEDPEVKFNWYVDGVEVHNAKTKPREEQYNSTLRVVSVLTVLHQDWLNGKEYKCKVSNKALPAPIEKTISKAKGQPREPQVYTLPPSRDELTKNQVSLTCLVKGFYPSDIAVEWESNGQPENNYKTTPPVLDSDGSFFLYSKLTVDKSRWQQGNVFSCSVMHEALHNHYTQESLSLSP
light: DIVMTQSPLSLPVTPGEPASISCQASESLVHSNRNTYLHWYLQKPGQSPQLLIYKVSNRFSGVPDRFSGSGSGTDFTLKISRVEAEDVGVYYCSQNTHVPPTFGQGTKVEIERTVAAPSVFIFPPSDEQLKSGTASVVCLLNNFYPREAKVQWKVDNALQSGNSQESVTEQDSKDSTYSLSSTLTLSKADYEKHKVYACEVTHQGLSSPVTKSFNRGEC
notes: Anti-glypican-3 IgG1 (G1d with K439E); the alteration stands in both H chains; EU numbering; also called Y300_08L Ho Ab; Y300L in both H chains
With B4, the Ho/Con_2aH in assay [1] is 115 relative binding activity (control homodimerized antibody GpH7-B3/GpL16-k0 = 100).

B5: GpH7-B3 variant Y300_06M/GpL16-k0 (homodimerized antibody, Ho Ab) (antibody, human IgG1, kappa)
heavy: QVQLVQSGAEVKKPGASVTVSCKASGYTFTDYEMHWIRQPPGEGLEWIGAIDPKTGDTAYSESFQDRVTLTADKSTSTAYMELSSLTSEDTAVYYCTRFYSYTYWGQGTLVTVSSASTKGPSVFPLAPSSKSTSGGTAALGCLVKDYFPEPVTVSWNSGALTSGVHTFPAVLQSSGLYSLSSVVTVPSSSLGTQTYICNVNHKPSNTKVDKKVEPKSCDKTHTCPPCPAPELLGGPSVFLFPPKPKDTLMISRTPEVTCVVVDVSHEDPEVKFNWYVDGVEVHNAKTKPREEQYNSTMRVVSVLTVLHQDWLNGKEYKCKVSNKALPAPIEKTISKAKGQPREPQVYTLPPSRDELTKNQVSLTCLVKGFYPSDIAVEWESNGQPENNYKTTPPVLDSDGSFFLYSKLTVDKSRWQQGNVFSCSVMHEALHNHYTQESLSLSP
light: DIVMTQSPLSLPVTPGEPASISCQASESLVHSNRNTYLHWYLQKPGQSPQLLIYKVSNRFSGVPDRFSGSGSGTDFTLKISRVEAEDVGVYYCSQNTHVPPTFGQGTKVEIERTVAAPSVFIFPPSDEQLKSGTASVVCLLNNFYPREAKVQWKVDNALQSGNSQESVTEQDSKDSTYSLSSTLTLSKADYEKHKVYACEVTHQGLSSPVTKSFNRGEC
notes: Anti-glypican-3 IgG1 (G1d with K439E); the alteration stands in both H chains; EU numbering; also called Y300_06M Ho Ab; Y300M in both H chains
Regarding B5, the Ho/Con_2aH in assay [1] is 106 relative binding activity (control homodimerized antibody GpH7-B3/GpL16-k0 = 100).

B6: GpH7-A5/GpH7-B3 variant N325_09D/GpL16-k0 (antibody, human IgG1, kappa)
heavy 1: not shown
heavy 2: not shown
light: DIVMTQSPLSLPVTPGEPASISCQASESLVHSNRNTYLHWYLQKPGQSPQLLIYKVSNRFSGVPDRFSGSGSGTDFTLKISRVEAEDVGVYYCSQNTHVPPTFGQGTKVEIERTVAAPSVFIFPPSDEQLKSGTASVVCLLNNFYPREAKVQWKVDNALQSGNSQESVTEQDSKDSTYSLSSTLTLSKADYEKHKVYACEVTHQGLSSPVTKSFNRGEC
notes: as for B3
Consider B6, for which, in assay [2], the “He_2aH/2b (IIaH/IIb)” value came out at 0.43 ratio. In assay [3], the He/Con_2b was 124 % of HeCon Ab (=100). Moreover, in assay [4], the He/Con_2aH is 53.1 % of HeCon Ab (=100).

B7: GpH7-B3 variant T335_09D/GpL16-k0 (homodimerized antibody, Ho Ab) (antibody, human IgG1, kappa)
heavy: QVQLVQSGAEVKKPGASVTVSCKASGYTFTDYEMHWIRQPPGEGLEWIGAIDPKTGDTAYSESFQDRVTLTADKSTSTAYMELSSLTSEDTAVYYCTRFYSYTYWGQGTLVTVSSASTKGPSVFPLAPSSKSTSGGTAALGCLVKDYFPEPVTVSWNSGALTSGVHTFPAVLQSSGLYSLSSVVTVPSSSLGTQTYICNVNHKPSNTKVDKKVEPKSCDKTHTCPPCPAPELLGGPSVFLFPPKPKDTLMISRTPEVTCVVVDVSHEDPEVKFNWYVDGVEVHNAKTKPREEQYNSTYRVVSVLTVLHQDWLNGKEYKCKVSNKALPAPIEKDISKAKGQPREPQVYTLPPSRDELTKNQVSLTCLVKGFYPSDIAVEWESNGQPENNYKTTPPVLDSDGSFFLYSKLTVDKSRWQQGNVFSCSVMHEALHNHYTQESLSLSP
light: DIVMTQSPLSLPVTPGEPASISCQASESLVHSNRNTYLHWYLQKPGQSPQLLIYKVSNRFSGVPDRFSGSGSGTDFTLKISRVEAEDVGVYYCSQNTHVPPTFGQGTKVEIERTVAAPSVFIFPPSDEQLKSGTASVVCLLNNFYPREAKVQWKVDNALQSGNSQESVTEQDSKDSTYSLSSTLTLSKADYEKHKVYACEVTHQGLSSPVTKSFNRGEC
notes: Anti-glypican-3 IgG1 (G1d with K439E); the alteration stands in both H chains; EU numbering; also called T335_09D Ho Ab; T335D in both H chains
Take B7: in assay [1], the Ho/Con_2aH was 110 relative binding activity (control homodimerized antibody GpH7-B3/GpL16-k0 = 100).

B8: GpH7-B3 variant T335_08L/GpL16-k0 (homodimerized antibody, Ho Ab) (antibody, human IgG1, kappa)
heavy: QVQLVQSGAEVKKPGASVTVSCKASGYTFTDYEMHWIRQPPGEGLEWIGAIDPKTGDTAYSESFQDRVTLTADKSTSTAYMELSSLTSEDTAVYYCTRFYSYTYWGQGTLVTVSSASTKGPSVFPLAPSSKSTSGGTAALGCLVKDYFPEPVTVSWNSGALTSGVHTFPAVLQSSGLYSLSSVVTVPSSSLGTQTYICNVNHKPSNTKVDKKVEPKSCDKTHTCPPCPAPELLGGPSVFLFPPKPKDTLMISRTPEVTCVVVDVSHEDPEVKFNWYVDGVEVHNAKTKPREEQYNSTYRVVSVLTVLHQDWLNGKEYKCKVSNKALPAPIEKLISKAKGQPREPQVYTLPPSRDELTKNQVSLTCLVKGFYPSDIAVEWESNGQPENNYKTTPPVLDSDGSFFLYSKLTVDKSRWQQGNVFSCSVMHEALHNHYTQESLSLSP
light: DIVMTQSPLSLPVTPGEPASISCQASESLVHSNRNTYLHWYLQKPGQSPQLLIYKVSNRFSGVPDRFSGSGSGTDFTLKISRVEAEDVGVYYCSQNTHVPPTFGQGTKVEIERTVAAPSVFIFPPSDEQLKSGTASVVCLLNNFYPREAKVQWKVDNALQSGNSQESVTEQDSKDSTYSLSSTLTLSKADYEKHKVYACEVTHQGLSSPVTKSFNRGEC
notes: Anti-glypican-3 IgG1 (G1d with K439E); the alteration stands in both H chains; EU numbering; also called T335_08L Ho Ab; T335L in both H chains
B8: the Ho/Con_2aH in assay [1] was 106 relative binding activity (control homodimerized antibody GpH7-B3/GpL16-k0 = 100).
